Experimental data from patent US20220127354A1 (Amgen, published 2022).
Numbering of substitutions follows the chain as printed. Numbers in names are those of the source.

T1: ckCDH19(1-43)::FLAG::ckCDH19(44-141)::huCDH19(142-249)::ckCDH19(250-776) (construct L, Hu EC2) (human/chicken chimera)
T1 construct: leader (1-43 of the entry) left out
T1 chain: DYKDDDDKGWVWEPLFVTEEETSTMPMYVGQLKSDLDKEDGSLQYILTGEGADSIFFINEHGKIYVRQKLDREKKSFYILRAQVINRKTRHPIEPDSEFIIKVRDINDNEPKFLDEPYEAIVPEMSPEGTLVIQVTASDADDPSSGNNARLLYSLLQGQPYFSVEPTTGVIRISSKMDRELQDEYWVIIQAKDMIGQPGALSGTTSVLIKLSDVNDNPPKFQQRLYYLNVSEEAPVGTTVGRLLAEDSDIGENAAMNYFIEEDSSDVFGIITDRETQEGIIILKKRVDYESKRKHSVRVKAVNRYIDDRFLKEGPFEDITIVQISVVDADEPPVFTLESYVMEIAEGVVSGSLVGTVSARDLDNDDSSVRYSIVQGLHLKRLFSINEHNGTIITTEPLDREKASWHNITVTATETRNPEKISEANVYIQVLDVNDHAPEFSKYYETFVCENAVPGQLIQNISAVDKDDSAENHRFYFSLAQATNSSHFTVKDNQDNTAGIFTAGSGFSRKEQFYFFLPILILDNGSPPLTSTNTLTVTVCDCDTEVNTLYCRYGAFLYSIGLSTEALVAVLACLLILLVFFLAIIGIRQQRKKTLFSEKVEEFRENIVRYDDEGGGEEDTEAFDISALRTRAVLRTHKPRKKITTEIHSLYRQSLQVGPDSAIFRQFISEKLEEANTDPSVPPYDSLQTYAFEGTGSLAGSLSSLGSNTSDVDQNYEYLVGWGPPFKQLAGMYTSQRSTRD

T2: ckCDH19(1-43)::FLAG::ckCDH19(44-468)::huCDH19(464-772) (construct O, Hu EC5) (human/chicken chimera)
T2 construct: leader (1-43 of the entry) left out
T2 chain: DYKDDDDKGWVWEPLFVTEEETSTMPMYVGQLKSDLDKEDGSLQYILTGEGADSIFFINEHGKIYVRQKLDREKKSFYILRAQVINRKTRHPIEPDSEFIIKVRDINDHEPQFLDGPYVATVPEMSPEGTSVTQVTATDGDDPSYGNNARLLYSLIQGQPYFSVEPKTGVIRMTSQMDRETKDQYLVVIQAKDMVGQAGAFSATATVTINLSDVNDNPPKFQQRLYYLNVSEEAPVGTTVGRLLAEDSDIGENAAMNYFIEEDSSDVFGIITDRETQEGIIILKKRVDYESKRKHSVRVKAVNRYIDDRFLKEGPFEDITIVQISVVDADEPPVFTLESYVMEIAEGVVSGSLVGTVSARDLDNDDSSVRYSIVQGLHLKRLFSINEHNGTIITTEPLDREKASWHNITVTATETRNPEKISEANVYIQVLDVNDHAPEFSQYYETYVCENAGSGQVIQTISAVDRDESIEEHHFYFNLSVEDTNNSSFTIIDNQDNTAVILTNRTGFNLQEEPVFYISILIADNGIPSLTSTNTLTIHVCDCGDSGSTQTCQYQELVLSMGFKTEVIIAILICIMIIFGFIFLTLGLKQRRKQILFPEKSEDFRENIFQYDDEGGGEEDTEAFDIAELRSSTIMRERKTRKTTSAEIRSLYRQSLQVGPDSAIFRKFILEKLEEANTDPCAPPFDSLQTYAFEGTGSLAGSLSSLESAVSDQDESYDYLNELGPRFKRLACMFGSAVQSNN

T3: rhCDH19(1-43)::FLAG::rhCDH19(44-141)::raCDH19(140-247)::rhCDH19(250-772) (construct V, ra EC2) (rhesus macaque/rat chimera, UniProt Q9H159 44-772 (human entry))
T3 construct: leader (1-43 of the entry) left out
T3 chain: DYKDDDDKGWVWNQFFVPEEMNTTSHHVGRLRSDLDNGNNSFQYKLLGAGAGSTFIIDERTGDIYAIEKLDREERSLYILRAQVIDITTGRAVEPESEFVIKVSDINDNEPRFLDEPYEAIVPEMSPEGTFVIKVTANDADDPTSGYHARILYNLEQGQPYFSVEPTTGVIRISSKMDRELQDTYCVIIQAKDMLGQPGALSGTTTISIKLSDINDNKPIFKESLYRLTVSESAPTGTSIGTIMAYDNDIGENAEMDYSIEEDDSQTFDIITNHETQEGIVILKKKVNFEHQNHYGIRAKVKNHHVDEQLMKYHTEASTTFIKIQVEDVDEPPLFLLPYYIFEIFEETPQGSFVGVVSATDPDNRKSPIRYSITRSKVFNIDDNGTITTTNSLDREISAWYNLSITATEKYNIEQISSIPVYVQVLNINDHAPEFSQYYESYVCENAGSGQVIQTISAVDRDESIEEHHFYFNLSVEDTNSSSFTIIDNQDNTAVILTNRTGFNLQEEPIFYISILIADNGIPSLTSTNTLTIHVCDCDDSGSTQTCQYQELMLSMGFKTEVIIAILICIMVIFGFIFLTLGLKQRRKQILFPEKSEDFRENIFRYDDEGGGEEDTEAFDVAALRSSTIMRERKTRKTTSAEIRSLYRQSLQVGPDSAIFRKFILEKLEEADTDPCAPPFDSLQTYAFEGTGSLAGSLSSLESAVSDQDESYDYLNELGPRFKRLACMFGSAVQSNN

B1: hu anti-<huCDH19> 26D1.1 (Ab ID 13882) (antibody, human IgG1, lambda, V domains shown)
VH: QVQLVQSGAEVKKPGASVKVSCKASRYTFTSYYMSWVRQAPGQGLEWMGIIHPSGGDTTYAQKFQGRVTMTGDTSTSTVYMELSSLRSEDTAVYYCARGGIKLWLHFDYWGQGTLVTVSS
VL: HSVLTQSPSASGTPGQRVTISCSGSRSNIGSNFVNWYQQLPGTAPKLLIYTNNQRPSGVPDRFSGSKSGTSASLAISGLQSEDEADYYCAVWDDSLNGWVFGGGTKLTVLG
notes: huIgG1z / huLLC-C2; Bin 2
B2: hu anti-<huCDH19> 25F8.1 (1-469)(F90Y) VH::huIgG1z + 25F8.1 (1-235)(K45Q,S102A,D111E) VL::huLLC-C2 (Ab ID 14096) (antibody, V domains shown)
VH: B1 VH with R26G, M34I, S35H, H52N, D57S, T59R, G72R, K102Q
VL: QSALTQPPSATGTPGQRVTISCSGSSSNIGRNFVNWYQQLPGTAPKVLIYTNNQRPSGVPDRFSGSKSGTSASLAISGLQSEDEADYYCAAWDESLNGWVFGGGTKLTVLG
notes: Engineered variant of 25F8; the entries already carry the changes; Bin 2
B3: anti-CDH19 antibody 2G6 (Ab ID 13588) (antibody, human IgG1, lambda, V domains shown)
VH: QVQLVESGGGVVQPGRSLRLSCAASGFTFSSYGMHWVRQAPGKGLEWVAFIWYDGSNKYYADSVKDRFTISRDNSKNTLYLQMKSLRAEDTAVYYCARRAGIIGTIGYYYGMDVWGQGTTVTVSS
VL: SYELTQPPSVSVSPGQTASITCSGDRLGEKYTCWYQQRPGQSPLLVIYQDTKRPSGIPERFSGSNSGNTATLTISGTQAMDEADYYCQAWDSSTVVFGGGTKLTVLG
notes: Bin 4
B4: hu anti-<huCDH19> 23A10.3 (1-474)(L92Q) VH::huIgG1z + 23A10.3 (1-231)(C42S) VL::huLLC-C2 (Ab ID 14077) (antibody, V domains shown)
VH: B3 VH with S31R, M34I, F50V, D66G, K84N, T91S, I103P, I106T
VL: B3 VL with T32V, C33S, R38K, L44I, T51N, R53W
notes: Engineered variant of 23A10; the entries already carry the changes; Bin 4
B5: hu anti-<huCDH19> 4B10 (Ab ID 13590) (antibody, V domains shown)
VH: QVQLVESGGGVVQPGRSLRLSCAASGFTFSSYDMHWVRQAPGKGLEWVAVISYDGTNEYYADSVKGRFTISRDTSKNTLYLQMNSLRAEDTAVYYCARERYFDWSFDYWGQGTLVSVSS
VL: EIVLTQSPGTLSLSPGERATLSCRASQSVSNTYLAWYHQRPGQAPRLLIYGASSRATGIPDRFSGSGSGTDFALTISSLEPEDFAVYYCQQYSNSWTFGQGTKVEIKR
notes: huIgG1z / huKLC; Bin 4
B6: hu anti-<huCDH19> 4A9 (Ab ID 13589) (antibody, human IgG1, lambda, V domains shown)
VH: QVQLQESGPGLVKPSETLSLTCTVSGGSISGYYWSWIRQPPGKGLEWFAYFSYSGSTNYNPSLKSRVTLSVDTSKNQFSLKLSSVTAADTAVYYCARNWAFHFDFWGQGTLVTVSS
VL: QSVLTQPPSVSGAPGQRVTISCTGSSSNIGTGYAVHWYQQFPGTAPKLLIYGNNNRPSGVPDRFSGSKSGTSASLAITGLQAEDEADYYCQSYDSRLSGWVFGGGTKLTVLG
notes: huIgG1z / huLLC-C1; Bin 1
B7: anti-CDH19 antibody 4A2 (Ab ID 13592) (antibody, human IgG1, kappa, V domains shown)
VH: QVQLQESGPGLVKPSQTLSLTCTVSGGSISSSGYYWSWIRQHPGKGLEWIGYIYYTGSAYYNPSLKSRVTISVDTSKNQFSLKLSSVTAADTAVYYCARDGSSGWYFQYWGQGTLVTVSS
VL: EIVLTQSPGTLSLSPGERATLSCRASRNISSSYLAWYQQKPGQAPRLLIYGPSSRATGIPDRFSGSGSGTDFTLTISRLEPEDFTVYYCQQYGSSFTFGPGTKVDIKR
notes: Bin 4

What follows are binders tested against huCDH19(44-772) with Flag tag (construct A, Hu EC1-5) (human, UniProt Q9H159 44-772) (assay: flow cytometry, transfected 293T cells, 2 mM CaCl2;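 note: binding of Alexa647-labelled anti-CDH19 antibodies to cells expressing human/chicken CDH19 chimeras, read as cell-bound fluorescence, with mock-transfected cells as controls, n.d. meaning not determined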).
Experimental: (§1) The experiment included assaying a subset of anti-CDH19 antibodies against chicken Cadherin19 to determine suitability for binning on these human/chicken chimeras.
(§2) The following binding assay was completed in presence of 2 mM CaCl₂). […] Cells were then washed one time and the amount of cell associated Alexa647-labelled Ab was quantitated by flow cytometry. The experiments included mock transfected controls.

Row | binding result | Binder
1 | binds | B1
2 | binds | B2
3 | binds | B3
4 | binds | B4
5 | binds | B5
6 | binds | B6

The binders below were run against T4, huCDH19(1-43)::FLAG::hu(44-141)::ckCDH19(142-776) (construct K, Hu EC1) (human/chicken chimera) (assay: flow cytometry, transfected 293T cells, 2 mM CaCl2;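 note: binding of Alexa647-labelled anti-CDH19 antibodies to cells expressing human/chicken CDH19 chimeras, read as cell-bound fluorescence, with mock-transfected cells as controls, n.d. meaning not determined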).
T4 construct: leader (1-43 of the entry) left out; also called huCDH19(44-141)::ckCDH19(142-776)
Experimental: as §1, §2

Row | binding result | Binder
7 | binds | B1
8 | binds | B2
9 | no binding (tested: 5 ug/ml) | B3
10 | no binding (tested: 5 ug/ml) | B4
11 | no binding (tested: 5 ug/ml) | B7
12 | no binding (tested: 5 ug/ml) | B5
13 | binds | B6

Target: T1, ckCDH19(1-43)::FLAG::ckCDH19(44-141)::hu …
Assay: flow cytometry, transfected 293T cells, 2 mM CaCl2
Experimental: as §1, §2

Row | binding result | Binder
14 | no binding (tested: 5 ug/ml) | B1
15 | no binding (tested: 5 ug/ml) | B2
16 | no binding (tested: 5 ug/ml) | B3
17 | no binding (tested: 5 ug/ml) | B4
18 | no binding (tested: 5 ug/ml) | B7
19 | no binding (tested: 5 ug/ml) | B5
20 | no binding (tested: 5 ug/ml) | B6

Target: T2, ckCDH19(1-43)::FLAG::ckCDH19(44-468)::hu …
Assay: flow cytometry, transfected 293T cells, 2 mM CaCl2
Experimental: as §1, §2

Row | binding result | Binder
21 | no binding (tested: 5 ug/ml) | B1
22 | no binding (tested: 5 ug/ml) | B2
23 | no binding (tested: 5 ug/ml) | B3
24 | no binding (tested: 5 ug/ml) | B4
25 | no binding (tested: 5 ug/ml) | B7
26 | no binding (tested: 5 ug/ml) | B5
27 | no binding (tested: 5 ug/ml) | B6

Target: T3, rhCDH19(1-43)::FLAG::rhCDH19(44-141)::ra …
Assay: flow cytometry, transfected 293T cells, 2 mM CaCl2
Experimental: as §2

Row | binding result | Binder
28 | no binding (tested: 5 ug/ml) | B1
29 | no binding (tested: 5 ug/ml) | B2
30 | no binding (tested: 5 ug/ml) | B6
